{"source": "patent US12227742B2", "about": "“Nucleic acid modifiers” (THE BROAD INSTITUTE, INC., priority 2017, dated 2025)", "molecules": {"B1": {"name": "St3Cas9: Streptococcus thermophilus CRISPR-3 Cas9 (protein, UniProt G3ECR1 1-1409, looked up)", "CRISPR-associated …": "MLFNKCIIISINLDFSNKEKCMTKPYSIGLDIGTNSVGWAVITDNYKVPSKKMKVLGNTSKKYIKKNLLGVLLFDSGITAEGRRLKRTARRRYTRRRNRILYLQEIFSTEMATLDDAFFQRLDDSFLVPDDKRDSKYPIFGNLVEEKVYHDEFPTIYHLRKYLADSTKKADLRLVYLALAHMIKYRGHFLIEGEFNSKNNDIQKNFQDFLDTYNAIFESDLSLENSKQLEEIVKDKISKLEKKDRILKLFPGEKNSGIFSEFLKLIVGNQADFRKCFNLDEKASLHFSKESYDEDLETLLGYIGDDYSDVFLKAKKLYDAILLSGFLTVTDNETEAPLSSAMIKRYNEHKEDLALLKEYIRNISLKTYNEVFKDDTKNGYAGYIDGKTNQEDFYVYLKNLLAEFEGADYFLEKIDREDFLRKQRTFDNGSIPYQIHLQEMRAILDKQAKFYPFLAKNKERIEKILTFRIPYYVGPLARGNSDFAWSIRKRNEKITPWNFEDVIDKESSAEAFINRMTSFDLYLPEEKVLPKHSLLYETFNVYNELTKVRFIAESMRDYQFLDSKQKKDIVRLYFKDKRKVTDKDIIEYLHAIYGYDGIELKGIEKQFNSSLSTYHDLLNIINDKEFLDDSSNEAIIEEIIHTLTIFEDREMIKQRLSKFENIFDKSVLKKLSRRHYTGWGKLSAKLINGIRDEKSGNTILDYLIDDGISNRNFMQLIHDDALSFKKKIQKAQIIGDEDKGNIKEVVKSLPGSPAIKKGILQSIKIVDELVKVMGGRKPESIVVEMARENQYTNQGKSNSQQRLKRLEKSLKELGSKILKENIPAKLSKIDNNALQNDRLYLYYLQNGKDMYTGDDLDIDRLSNYDIDHIIPQAFLKDNSIDNKVLVSSASNRGKSDDFPSLEVVKKRKTFWYQLLKSKLISQRKFDNLTKAERGGLLPEDKAGFIQRQLVETRQITKHVARLLDEKFNNKKDENNRAVRTVKIITLKSTLVSQFRKDFELYKVREINDFHHAHDAYLNAVIASALLKKYPKLEPEFVYGDYPKYNSFRERKSATEKVYFYSNIMNIFKKSISLADGRVIERPLIEVNEETGESVWNKESDLATVRRVLSYPQVNVVKKVEEQNHGLDRGKPKGLFNANLSSKPKPNSNENLVGAKEYLDPKKYGGYAGISNSFAVLVKGTIEKGAKKKITNVLEFQGISILDRINYRKDKLNFLLEKGYKDIELIIELPKYSLFELSDGSRRMLASILSTNNKRGEIHKGNQIFLSQKFVKLLYHAKRISNTINENHRKYVENHKKEFEELFYYILEFNENYVGAKKNGKLLNSAFQSWQNHSIDELCSSFIGPTGSERKGLFELTSRGSAADFEFLGVKIPRYRDYTPSSLLKDATLIHQSVTGLYETRIDLAKLGEG"}, "B2": {"name": "SaCas9 T787A (protein, UniProt J7RUA5 1-1053, looked up, variant T787A)", "CRISPR-associated …": "MKRNYILGLDIGITSVGYGIIDYETRDVIDAGVRLFKEANVENNEGRRSKRGARRLKRRRRHRIQRVKKLLFDYNLLTDHSELSGINPYEARVKGLSQKLSEEEFSAALLHLAKRRGVHNVNEVEEDTGNELSTKEQISRNSKALEEKYVAELQLERLKKDGEVRGSINRFKTSDYVKEAKQLLKVQKAYHQLDQSFIDTYIDLLETRRTYYEGPGEGSPFGWKDIKEWYEMLMGHCTYFPEELRSVKYAYNADLYNALNDLNNLVITRDENEKLEYYEKFQIIENVFKQKKKPTLKQIAKEILVNEEDIKGYRVTSTGKPEFTNLKVYHDIKDITARKEIIENAELLDQIAKILTIYQSSEDIQEELTNLNSELTQEEIEQISNLKGYTGTHNLSLKAINLILDELWHTNDNQIAIFNRLKLVPKKVDLSQQKEIPTTLVDDFILSPVVKRSFIQSIKVINAIIKKYGLPNDIIIELAREKNSKDAQKMINEMQKRNRQTNERIEEIIRTTGKENAKYLIEKIKLHDMQEGKCLYSLEAIPLEDLLNNPFNYEVDHIIPRSVSFDNSFNNKVLVKQEENSKKGNRTPFQYLSSSDSKISYETFKKHILNLAKGKGRISKTKKEYLLEERDINRFSVQKDFINRNLVDTRYATRGLMNLLRSYFRVNNLDVKVKSINGGFTSFLRRKWKFKKERNKGYKHHAEDALIIANADFIFKEWKKLDKAKKVMENQMFEEKQAESMPEIETEQEYKEIFITPHQIKHIKDFKDYKYSHRVDKKPNRELINDALYSTRKDDKGNTLIVNNLNGLYDKDNDKLKKLINKSPEKLLMYHHDPQTYQKLKLIMEQYGDEKNPLYKYYEETGNYLTKYSKKDNGPVIKKIKYYGNKLNAHLDITDDYPNSRNKVVKLSLKPYRFDVYLDNGVYKFVTVKNLDVIKKENYYEVNSKCYEEAKKLKKISNQAEFIASFYNNDLIKINGELYRVIGVNNDLLNRIEVNMIDITYREYLENMNDKRPPRIIKTIASKTQSIKKYSTDILGNLYEVKSKKHPQIIKKG"}}, "key": {"target DNA [1]": {"test_system": "target DNA", "test": "SpCas9 DNA cleavage activity, mutational analysis", "type": "biochemical", "settings": "5′-NGG PAM (5′-GGGCT)"}, "target DNA [2]": {"test_system": "target DNA", "test": "SaCas9 DNA cleavage activity, mutational analysis", "type": "biochemical"}}}
{"molecule": "B1", "values": [{"measurement": "cleavage of target DNA with 5′-NGG PAM", "setting": "target DNA [1]", "value": "not"}]}
{"molecule": "B2", "values": [{"measurement": "DNA cleavage activity", "setting": "target DNA [2]", "value": "reduced DNA cleavage activity"}]}
